Measurements reported in article PMC8360118 (Genes to Cells, 2021).
Each block holds one binder with its values, some of them ahead of it. * marks the point of attachment. αMan = OC[C@H]1O[C@H](*)[C@@H](O)[C@@H](O)[C@@H]1O

Biological target: T1, soluble form of bovine POMGNT2 (sPOMGNT2, residues 45–580) (bovine, UniProt Q5NDF2 45-580)
T1 sequence (looked up): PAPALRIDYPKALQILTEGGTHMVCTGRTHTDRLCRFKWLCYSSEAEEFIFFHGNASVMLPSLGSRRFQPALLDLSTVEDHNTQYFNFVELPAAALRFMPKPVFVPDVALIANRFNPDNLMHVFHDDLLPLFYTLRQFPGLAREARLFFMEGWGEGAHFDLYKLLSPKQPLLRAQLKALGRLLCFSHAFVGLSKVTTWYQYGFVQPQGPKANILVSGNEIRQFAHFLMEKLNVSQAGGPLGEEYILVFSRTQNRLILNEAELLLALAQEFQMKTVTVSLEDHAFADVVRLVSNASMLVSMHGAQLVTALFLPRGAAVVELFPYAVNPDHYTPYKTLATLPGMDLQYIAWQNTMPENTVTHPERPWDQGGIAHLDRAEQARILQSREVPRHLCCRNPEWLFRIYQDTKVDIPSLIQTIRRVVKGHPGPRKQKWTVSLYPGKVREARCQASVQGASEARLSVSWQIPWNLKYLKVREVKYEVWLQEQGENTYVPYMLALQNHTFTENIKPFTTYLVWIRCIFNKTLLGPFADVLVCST
Experiment: crystal structure

binding result: binds
B1: 379Man long peptide (peptide)
peptide: Ac-TIRTRGAIIQT(αMan)PTLGPIQPTR-NH2
SMILES: CC[C@H](C)[C@H](NC(=O)[C@H](C)NC(=O)CNC(=O)[C@H](CCCNC(=N)N)NC(=O)[C@@H](NC(=O)[C@H](CCCNC(=N)N)NC(=O)[C@@H](NC(=O)[C@@H](NC(C)=O)[C@@H](C)O)[C@@H](C)CC)[C@@H](C)O)C(=O)N[C@H](C(=O)N[C@@H](CCC(N)=O)C(=O)N[C@H](C(=O)N1CCC[C@H]1C(=O)N[C@H](C(=O)N[C@@H](CC(C)C)C(=O)NCC(=O)N1CCC[C@H]1C(=O)N[C@H](C(=O)N[C@@H](CCC(N)=O)C(=O)N1CCC[C@H]1C(=O)N[C@H](C(=O)N[C@@H](CCCNC(=N)N)C(N)=O)[C@@H](C)O)[C@@H](C)CC)[C@@H](C)O)[C@@H](C)O[C@H]1O[C@H](CO)[C@@H](O)[C@H](O)[C@@H]1O)[C@@H](C)CC

binding result: binds
B2: 379Man short peptide (peptide)
peptide: Ac-QT(αMan)PTLGPIQPTR-NH2
SMILES: CC[C@H](C)[C@H](NC(=O)[C@@H]1CCCN1C(=O)CNC(=O)[C@H](CC(C)C)NC(=O)[C@@H](NC(=O)[C@@H]1CCCN1C(=O)[C@@H](NC(=O)[C@H](CCC(N)=O)NC(C)=O)[C@@H](C)O[C@H]1O[C@H](CO)[C@@H](O)[C@H](O)[C@@H]1O)[C@@H](C)O)C(=O)N[C@@H](CCC(N)=O)C(=O)N1CCC[C@H]1C(=O)N[C@H](C(=O)N[C@@H](CCCNC(=N)N)C(N)=O)[C@@H](C)O
